Results reported in publication PMC7587441, “Plasmodium falciparum Apicomplexan-Specific Glucosamine-6-Phosphate N-Acetyltransferase Is Key for Amino Sugar Metabolism and Asexual Blood Stage Development” (mBio, 2020).

Target: Cryptosporidium parvum glucosamine-6-phosphate N-acetyltransferase (CpGNA1) (Cryptosporidium parvum)
Test: crystal structure; CpGNA1 (1.5 mg/ml) cocrystallised with 10 mM acetyl-CoA, soaked with 50 mM acetyl-CoA and 50 mM Glc6P; space group P2(1)2(1)2(1), two monomers in the asymmetric unit; 1.95 Å

stoichiometry N: 2
Substance: Cryptosporidium parvum glucosamine-6-phosphate N-acetyltransferase (CpGNA1) (enzyme)
